Reference: patent US20140302070A1

Tests used:
[1] = target: MHC class I H2-K^d-… (HIV-1; mouse) (UniProt P01902)
[2] = target: MHC class I H2-K^d-… (HIV-1; mouse) (UniProt P01902); assay: H2-K^d-… tetramer staining of splenocytes, flow cytometry

Substance	IFN-γ ELISPOT (fold against the p24fc-immunized group) [1]	frequency of p24-specific tetramer^+ CD8^+ T cells [2]
splenocytes (T cells) of mice immunized with human sΔ42PD1-p24fc DNA (cells without a defined receptor)	10	
splenocytes (T cells) of mice vaccinated with msΔ42PD1-p24fc DNA (cells without a defined receptor)		17%
